Earlier results, collected in patent publication US8217152B2, “Process for the purification of IL-18 binding protein” (Ares Trading S.A., priority 2005, dated 2012).

Legend:
IL-18 = molecular target: T1, IL-18 (Homo sapiens, UniProt Q14116); conditions: Kim et al. 2000; read-out: dissociation constant (Kd) for IL-18
T1 sequence (Q14116 37-193): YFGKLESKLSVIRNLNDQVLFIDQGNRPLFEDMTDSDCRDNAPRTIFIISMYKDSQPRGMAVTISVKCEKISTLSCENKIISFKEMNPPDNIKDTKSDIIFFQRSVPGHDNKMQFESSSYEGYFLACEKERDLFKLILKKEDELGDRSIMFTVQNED

IL-18 induction of IFN-γ = conditions: in vitro
[1] = system: IL-18 activation of NF-κB; conditions: in vitro
induction of IFN-γ = conditions: mice injected with LPS

Kd (IL-18): 0.4 nM
B1: IL-18BP: naturally occurring soluble protein that binds IL-18 (protein, UniProt O95998 31-194, looked up)
Interleukin-18-binding protein: TPVSQTTTAATASVRSTKDPCPSQPPVFPAAKQCPALEVTWPEVEVPLNGTLSLSCVACSRFPNFSILYWLGNGSFIEHLPGRLWEGSTSRERGSTGTQLCKALVLEQLTPALHSTNFSCVLVDPEQVVQRHVVLAQLWAGLRATLPPTQEALPSSHSSPQQQG
effect on IL-18 induction of IFN-γ (IL-18 induction of IFN-γ): abolishes
effect on IL-18 activation of NF-κB [1]: abolishes
effect on induction of IFN-γ (induction of IFN-γ): inhibits
